According to publication PMC10907721:
Where a chain is given by its changes, count along the chain named. pKd: −log10 of the molar value.

Experiments:
Test in all cases: EMSA
Details in all cases: EMSA: 20 mM Tris-HCl pH 7.5, 25 mM NaCl, 2 mM beta-mercaptoethanol, 10% glycerol; 50 nM nucleosome or DNA; 15 min room temperature; 6% TBE-acrylamide gel, 0.2X …
[1] = target: T1, Hop1 CBR loop 1+2 mutant N362A;H365A;R402A;K403A;K404A;K405A (Saccharomyces cerevisiae) (UniProt P20050)
T1 sequence: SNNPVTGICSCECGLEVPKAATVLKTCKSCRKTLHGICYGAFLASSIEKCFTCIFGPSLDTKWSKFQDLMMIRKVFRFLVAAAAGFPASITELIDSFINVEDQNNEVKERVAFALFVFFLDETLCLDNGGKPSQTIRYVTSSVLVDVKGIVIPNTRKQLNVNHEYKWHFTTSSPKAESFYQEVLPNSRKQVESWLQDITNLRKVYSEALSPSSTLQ

[2] = target: T2, Hop1 CBR loop2 mutant R402A;K403A;K404A;K405A (Saccharomyces cerevisiae) (UniProt P20050)
T2 sequence: T1 sequence with A41N, A44H

[3] = target: T3, Hop1 CBR loop 1+2+3 mutant N362A;H365A;R402A;K403A;K404A;K405A;K452A;R458A (Saccharomyces cerevisiae) (UniProt P20050)
T3 sequence: T1 sequence with K131A, R137A

[4] = target: T4, Hop1 CBR loop 3 mutant K452A;R458A (Saccharomyces cerevisiae) (UniProt P20050)
T4 sequence: T1 sequence with A41N, A44H, A81R, A82K, A83K, A84K, K131A, R137A

[5] = target: T5, Hop1 CBR loop2+3 mutant R402A;K403A;K404A;K405A;K452A;R458A (Saccharomyces cerevisiae) (UniProt P20050)
T5 sequence: T1 sequence with A41N, A44H, K131A, R137A

[6] = target: T6, Hop1 CBR loop 1 mutant N362A;H365A (Saccharomyces cerevisiae) (UniProt P20050)
T6 sequence: T1 sequence with A81R, A82K, A83K, A84K

[7] = target: T7, Hop1 CBR loop 1+3 mutant N362A;H365A;K452A;R458A (Saccharomyces cerevisiae) (UniProt P20050)
T7 sequence: T1 sequence with A81R, A82K, A83K, A84K, K131A, R137A

Question: What does the source list for “TGGAGAATCCCGGTGCCGAGGCCGCTCAATTGGTCGTAGACAGCTCTAGCACCGCTTAAACGCACGTACGCGCTGTCCCCCGCGTTTTAACCGCCAAGGGGATTACTCCCTAGTCTCCAGGCACGTGTCAGATATATACATCCTGT (double strand) [Widom 601 mononucleosome (human histones)]”?
Answer: pKd [1]: < 4.30; pKd [2]: < 4.30; pKd [3]: < 4.30; pKd [4]: 4.30; pKd [5]: < 4.30; pKd [6]: 5.70; pKd [7]: 4.89
